Binding signal data for one sequence are collected here from paper PMC12412624, “Engineered Cas12j‐8 is a Versatile Platform for Multiplexed Genome Modulation in Mammalian Cells”.

Positions count from the first letter of the chain named.

The test system of data set [1] is T1, dCas12j-8 E609R E609R;D369A;E567A;D658A (bacteriophage (metagenome)).
T1 sequence: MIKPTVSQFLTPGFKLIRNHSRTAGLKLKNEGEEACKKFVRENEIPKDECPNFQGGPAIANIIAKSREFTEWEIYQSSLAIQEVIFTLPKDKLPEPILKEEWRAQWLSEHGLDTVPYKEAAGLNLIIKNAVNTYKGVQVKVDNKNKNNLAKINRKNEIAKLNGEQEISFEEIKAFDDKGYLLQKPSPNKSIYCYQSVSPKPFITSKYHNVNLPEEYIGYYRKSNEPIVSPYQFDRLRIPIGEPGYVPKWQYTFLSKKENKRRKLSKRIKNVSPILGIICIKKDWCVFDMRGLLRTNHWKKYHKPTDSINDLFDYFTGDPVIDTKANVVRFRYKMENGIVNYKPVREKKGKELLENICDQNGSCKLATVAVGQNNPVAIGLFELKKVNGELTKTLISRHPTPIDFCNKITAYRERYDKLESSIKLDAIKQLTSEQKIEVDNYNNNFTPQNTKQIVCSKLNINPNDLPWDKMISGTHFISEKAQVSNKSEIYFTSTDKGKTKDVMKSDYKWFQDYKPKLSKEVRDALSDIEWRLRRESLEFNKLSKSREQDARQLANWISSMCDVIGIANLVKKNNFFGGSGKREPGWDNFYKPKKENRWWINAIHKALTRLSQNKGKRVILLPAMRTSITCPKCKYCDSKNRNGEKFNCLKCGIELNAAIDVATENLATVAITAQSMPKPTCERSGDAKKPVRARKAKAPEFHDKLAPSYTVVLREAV
The settings on record: HEK293T cells; panel 1c (compare within a panel only); scale: mean GFP / mean GFP of wild type, printed, no background subtraction.

Data set [2] concerns T2, dCas12j-8 E258R E258R;D369A;E567A;D658A (bacteriophage (metagenome)).
T2 sequence: T1 sequence with E258R, R609E
Conditions: HEK293T cells; panel 1c (compare within a panel only); scale: mean GFP / mean GFP of wild type, printed, no background subtraction.

For data set [3], the system named is T3, dCas12j-8 E258R+E547R E258R;E547R;D369A;E567A;D658A (bacteriophage (metagenome)).
T3 sequence: T1 sequence with E258R, E547R, R609E
Conditions: HEK293T cells; panel 1d (compare within a panel only); scale: mean GFP / mean GFP of wild type, printed, no background subtraction.

For the sequence “CUUUCAAGACUAAUAGAUUGCUCCUUACGAGGAGACACUCCCUAUCAGUGAUAGAG / TTNACTCCCTATCAGTGATAGAG / CTCTATCACTGATAGGGAGTNAA [TetO]”, the binding signal amounted to 0.336 in data set [1], 1.68 in data set [2] and 3.03 in data set [3].
